Experiment: soluble on expression in E. coli; label from the status in PepcDB or PDB records

Row | Sequence | soluble on expression in E. coli
1 | GDWLDLNTTSSVETGQAIVTLDDAQIALNGIYRLASGHSYYGDNYWYYGDCRAADVQARITKGDGKRVSPYYEYNVLASDNLNIVLPWNTVYKVIRQTNNLIQKIESGSIQSSDTKELNRIKSEALVMRGLSLFNLTRLFGMPYTNDKGASLGVPIETSPSDPTHKPSRSTVAQCYEQVVSDMSNALSGLRQETSNGYINYWAAQALLSRVYLNMGEYQKAYDAATDVIKNNGGRYQLYSYEEYPNVWGQDFQSESLFELYITLSEPSGGTGGEGAPMVYANEATVDWNNLILSEDFLNLLNEDPKDVRHCLTKESVIENNTGLPAAAMHEKVYLAKFPGKTGDDPKTNNICIIRLSEVYLNAAEAGLKKGTDIEEAQGYLNDIISRRTTDTSQQVSTETFTLDRILKERRKELVGEGEVFYDYLRNGLAIERKGSWHLETLKASNAQKIEATDLRIALPIPQSEIDANPNIQQNPR | soluble
2 | MKKVQTPLFQGITENEWNEMQNCSCMRQQSFEKNELIFRMGESVREIGIVLTGSVNIENVDLWGNKSLLSNISAGQVFAETYAFCQEPLMVNAVAAEYTNLLFLNLETLMQPRYKDTLWTDKIMQNLLRISIYKNLILSNRIFCTTPKTIRGRLLIYLSSQASKAESTVFQISFNRQELADYLNLDRSALSKELGKMRDEGILEFRKNQFVLHQLPE | not soluble
3 | MKPLFGKVGVFGVGLLGGSVALGIKERFLAEEVHAYDQDPMALEKVLFLGVADRVHTEVGPWVGELDLGILAAPVGALAELGKALAPWAHPESLWTDVGSVKAKVVAALEGLLPHYLGGHPMAGSERAGVENAHAGLLQNAVWVLTPTERTSPRAREGVRGLVEALGAYPLEMPPGRHDELVARVSHLPYLLAVALNRMVAQSPHRDLLMFLAAGGFRDLTRVASGSPRMSRDMVVENKEALKEAIEELREVLLELEGLLDEPEGLLRAAEEAKRTRDSLPIVRRSLLPEMHDLVVQVPDRPGEIARIATALGEAGVNIKDIEVLTIREAAGALRLSFATREERERARRVLQEAGYRLP | soluble
4 | MSLLAGVKLEKRDKTLVDATEALAGKAVGFYFSAHWCPPCRGFTPILKDFYEEVEDEFEVVFVSFDRSESDLKMYMSEHGDWYHIPYGNDAIKELSTKYGVSGIPALIIVKPDGTEVTKDGRNDVQNGKDPKATVAKWKA | not soluble
5 | MGSDKIHHHHHHMSFSNEMKVFSGNANRPLAEKIANYLNLQLGDCEVGRFADGEINVRINETVRGHDIFLIQPTSPPVNENLMELLIMIDAFKRASANTIAVVIPYYGYARQDRKAKGRDPISAKLVANLITVAGATRVLTVDLHAEQIQGFFDIPVDNLWSYPVFAEELLKRENIVPEETVVVSPDVGGVRRARRMAERLGTSLAILDKRRPSDNVAEVVNIIGEVEDKVVIMFDDIIDTAHSIVKGAEALKNAGAKRIIACATHGVFSDRALERIENSSIDTVYITDTIYHENLPEKVKVISVANLIGEAIMRIRKHLSVSTLFR | not soluble
6 | MSLYEPADGILETHVTWEDVEKDLQQSLGTRATFGENKRATNISDLKGFMSRIACLEPDWQNIEEGKELPSKFALKISSQLALVALSKIMNFEEGAGFSEEKLKKFSSLTKECHNREVDAYKVLMKFNHPDIPYTKGYMIIDFVPNIQTVEMYKSISADTIIPIIRGVATFSALGERLSKEDQHFVMGPTYLEMIFEDFFNDVELKKKFDTLRTTFEETENQEKVEKLITVFEHYKSLVKKYTNISDILGVKLVLNHGDLSQPNVLFSLDPQNKLKLEAIIDWQCVSRMPPGLDTARLLLGCLSGQERRERGTELLKVYHETYTSVFGEELFTFQELQELFNLFAPMMAMMLLPVMPSSIQSAIIPEEDKVSALKEVKTKMIAMMEDILEIHDNNLNHFSDFMKI | not soluble
7 | MAAEKTLRTCEKGHEYYKSSDCPTCPTCEKERTPQEGFLSLLSAPARRALEHHGIHTVEELSKYSEKEILKLHGMGPASLPKLRKALEESGLSFK | not soluble
8 | MIKQVIQQLRVPDAGIENLQERRYWLQCERAYTYQPIYQTDGRLMAVELLTVVTHPDNPSRRIAPDRYFAELAVRHRIDVVKEQLHQLEQKADFFTRHHLLASVNVDGPTLIAMRRQPDILAAMERLPWLRFELVEHIRLPKDSSFASMCEFGPLWLDDFGTGMANFSALSEVRYDYIKVARELFVMLRQSPEGRNLFTLLLQLMNRYCRGVIVEGVETLEEWRDVQRSPAFAAQGYFLSRPVPLISLEEVILTL | not soluble
9 | MGSDKIHHHHHHMANELKVLEGMDVVALARKHSDQATVSGQVIPWQTSLSFDPSVDSDSTVTKDGNVATRSSASTDLEVEFLNNTAAIADVMYDSLFDGELLDFWILYRKRKNSAGKYYAWYMQVTVQEDSSDNDPDDHSTRDVTFSVNGTPKRGWTTLDDETQEQVDYVFLGVGKVTDTDKTGGGTVWDKDVDPGTNTADTAPAQSSSGTAPAQGGSSTGA | not soluble
10 | MRWKLLFALLAALLLAACSQSSERVVIGSKPFNEQYILANMIAILLEENGYKAEVKEGLGGTLVNYEALKRNDIQLYVEYTGTAYNVILRKQPPELWDQQYIFDEVKKGLLEADGVVVAAKLGFRDDYALAVRADWAEENGVEKISDLAEFADQLVFGSDPEFASRPDGLPQIKKVYGFEFKEVKQMEPTLMYEAIKNKQVDVIPAYTTDSRVDLFNLKILEDDKGALPPYDAIIIVNGNTAKDEKLISVLKLLEDRIDTDTMRALNYQYDVEKKDAREIAMSFLKEQGLVK | not soluble
11 | MNSEALDNFEAPRFRPPDEPRMMKNYTTQFSPLDTPPPMNGTPPIAGMHHYLTDPDPSREMMDLPANISNFGRDDASLVLPANLMGGADTSLPNIDRYKMDLPSEIYPNDPMPRGISTPPMNMKFNLGENIGRDVDRGVMNGFGAERQYQDPMIEIEQNLGNIRFESGNEKIKATITKFDEDYYGNEICAQCQAEDAYMDRMRRQAEEERRKYEETMKRAKMYEDLTREKEETFKREEAERNKALRDHVDRVNAEMIEMKKRRPKSPVLENYIFRHESPRSRDVEVRTRKDAYRAELDRQVEEKRLRRIAEFEKNEAIDATSNARAALEFANAREAERKSIEHAKEMARKQLEFQMEMSRVGAPSDKNWLWWAERPDEHGWRDARLKGLKHTNQVERNQTFKQSIGMLEEFKARQAHDDMVMRDNRRAKYDKLRDQLHENSKMLYPLTKTESRPIIVQPDPRVEAAWREAHEKYDRKFAVLQDNAMKSISGAALDGVAHATTSCRRCARCARPMERKTTLFVNRGETILPHQANWHS | not soluble
12 | MVLSVVVVGKPRCRSIAVAARERLHRYGEYPMSSNNASGKVVSVDEQAFENAGEQAADEDGFPVVDETPEFEAAVEQETQAKVDANHPDGIADTSEDRIHGVTLEQEERIRAREAELERISAQAELGTQDGREQRTRDIAAKRSAVRRAEFQTRAASVDPMADPERDDPRAELTQEQLAAVNKQSMRLAEKLDGWSRAAIGRRLGEAVVGGKDVTSAVVGVFEELQTAPGTVIPIGKLEDVNRKEVSIEGTVTRLWKPSSAAISQVGLIEDESGKTKFTSWVASEQPWIEEGEHVRIHGAAKNWYNGRVSVALTGWSTVHFPERGRWWEALEHHHHHH | not soluble
13 | MGSDKIHHHHHHMAQIISINDNQRLQLEPLEVPSRLLLGPGPSNAHPSVLQAMNVSPVGHLDPAFLALMDEIQSLLRYVWQTENPLTIAVSGTGTAAMEATIANAVEPGDVVLIGVAGYFGNRLVDMAGRYGADVRTISKPWGEVFSLEELRTALETHRPAILALVHAETSTGARQPLEGVGELCREFGTLLLVDTVTSLGGVPIFLDAWGVDLAYSCSQKGLGCSPGASPFTMSSRAIEKLQRRRTKVANWYLDMNLLGKYWGSERVYHHTAPINLYYALREALRLIAQEGLANCWQRHQKNVEYLWERLEDIGLSLHVEKEYRLPTLTTVCIPDGVDGKAVARRLLNEHNIEVGGGLGELAGKVWRVGLMGFNSRKESVDQLIPALEQVLR | soluble
14 | MGSDKIHHHHHHMAVSAKYDEFNHWWATEGDWVEEPNYRRNGMSGVQCVERNGKKLYVKRMTHHLFHSVRYPFGRPTIVREVAVIKELERAGVIVPKIVFGEAVKIEGEWRALLVTEDMAGFISIADWYAQHAVSPYSDEVRQAMLKAVALAFKKMHSINRQHGCCYVRHIYVKTEGNAEAGFLDLEKSRRRLRRDKAINHDFRQLEKYLEPIPKADWEQVKAYYYAM | not soluble
15 | MGSDKIHHHHHHMVSFVHSSDLHLGKSFGTFPEDVRVRLQQARLESLTTLADIARTNGARHVLLAGDTFDKMTPAPKVIRGALNAMREAADVTWWVLPGNHDHVNATELWRTFTSDAPANVHALLRPEPVMLTDGVALLPAPPTERHPGRDLTDWFDDAATGDALRIGLAHGSIRGFSAEDGGASVLSFNRARDAGLAYLGLGDWHGQLQVSENTWYSGAPEADSFKHAMDPSALLVEVDGARVTVTPHPTSRLIWRASEVDLIGDEADLPLPPQDRARTLLKLTLTGRARPAVRRDLEAAFDHAAPDFLWAEAEFDGLDLVHETSDLDQIDRQGALRAAAEALVREADDQALSPEARATADAALSLLFTYAAEA | not soluble
16 | MSLNVDPNITKYVIKAKIVTDGVVEKPDVVGAIFGQTEGLLGEELDLRDLQKSGKIGRIEVEIDTKKGRTEGFVLIPSGLDQVESSILAAALETIDRIGPCKAKVDIEDVEDVRINKRDKVIQRAEELYKKMGTNGKSLSESIIQSVREEVEKKEILSYGEEHLPAGPAVGTSDSIIVVEGRNDVLNLLRYGIKNTIAVQGTSVPKTVKELSKARTVTLFVDGDHGGELIIKEMLQVADVDFIARAPPGTEVEELTYKQIVKALKYKAPVNQYLESHGMIEELKEFTEKNNKAIADMNVNTTVKEEPQQKKQEKEPKHVETAEVEAPVIEEINDINDPRFVRNKLNELFESKAVEIYDDAGNPIARYPVSDAAELMQSVKNGTTIISGGVISQRFVDIAFSMGVKSIYGMKIGHVTKKPDEIRVVTWEHMEGHHHHHH | soluble
17 | MTDETTQNIKDKTEEELAALLDQTLGEFTATPAPKPRTTDDELDELMASADQEAAQKAAKDFQKMLEQMVTLQEEAMKKAGADPSEGEGEQPLDPNDPEALAMMDALKQLMECSSNVANASNPEEFMAGLDMLRSPNSPMEPFMSMIMQTLASKEVMYPPLKEIFDNYPKYLEDNGAGLDAETKERYEKQFEVLGKICTEFEKQPELAEVQPVDAATQPAPEADPASIEHFEKLGKLLVELQQYGYPPKELVGALPDGWQIDESGLPKVADAAAATEACSIM | soluble
18 | MQQEALSFLSSSLPSLHHNFPSLSRLRFNNFPALSFKPNTSSSSSSFFKSPDIPSLSSTTTTTTTTETLESSIHEKLIYLDSLGIDFLTLINRHPPLLSTALSAVESVVDYMTTPPINFTLQDFRRLVSMCPELLTSPLTSHTIPVITFLLREVGVDSIFDLRQALRRRPRLLACSVDHQLRPTLYFLQRIGILDPHKHTYLLSCSVDNKLVPRIDYFEKLGFSRRSATAMFKRFPQLFNYSIAENYEPKLKYLMVEMGRDVREVLEFPQYFSFSLENRIKPRHEACAAKGVRFPLPVMLKTNEAGFRDTLEVCCDSSPPLKTSRLVTVQKDS | not soluble
19 | MSLANIQEIAKLAGVSSATVSRVINNRDYVSEETRKRVQTIIDKLDYVPNINAVSLKKGATKLIGMVIPSFTDSLNVFLKSFTMMAQEHGYNVTLFMTRIDPDKELEALEMLRQKQIDALVLVIRSNDWKTIEHYTKYGPIVTWQRVESEKIPSVFMNQYDGYTLALEHLYAKGYRKFVNVYGNTTGLNTQSRMLAFKDFCARYELDPHEFRQFYGQGSRQDGEKIAHWWSETEHKPDAFLTPNDYFAAGLLTEARRLGYSVPEDFAICGFDNMEVAHLLDITTIHYPVNLQAENAFTLIMNQLFGSNLPLLDLDFHLVERKTTEGHHHHHH | soluble
20 | MGSDKIHHHHHHMPRQMRPDIADIRTGADLRQWYWRKDELVAHARTLGLKRSGAKFTILDRIAHFLDTGARDLPEAPAPKPTSDFDWHSAKLTPDTILTDSYKNTQNVRRFFKAQLGPRFAFSIPLMAWLKENSGKTLSDACAVWRDLQAERRRPGWQSDIKGHNQFNQYTRDFLAAHPDLGMDDVRRVWARKIQQPSPDGRHIYEPSDLDL | not soluble

Source: the DeepSol protein solubility set
